Source: the supplement of paper PMC9112550, “Optimization of the antimicrobial peptide Bac7 by deep mutational scanning” (BMC Biology, 2022)

Tested on: Escherichia coli TOP10
Assay: shrunken log2 fold change of peptide-encoding DNA abundance (4.5 h post-induction vs induction); higher = less antimicrobial activity (less host growth inhibition)
Conditions: time post-induction: 4.5 h; library: site-saturation at positions 5, 18, 19, 20
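Further: peptides expressed intracellularly from a pBAD plasmid library in pooled LB shake-flask culture, induced with 0.3% L-arabinose, DNA abundance read by NGS, three biological replicates, DESeq2 with apeglm shrinkage.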

RRIRQRPPRLPRPRPRPCCRPRP
shrunken log2 fold change: -0.0851

RRIRSRPPRLPRPRPRPPQCPRP
shrunken log2 fold change: 0.115

RRIRLRPPRLPRPRPRPNRAPRP
shrunken log2 fold change: 0.0133

RRIRMRPPRLPRPRPRPNSIPRP
shrunken log2 fold change: -0.283

RRIRIRPPRLPRPRPRPVQLPRP
shrunken log2 fold change: -0.0585

RRIRGRPPRLPRPRPRPPIVPRP
shrunken log2 fold change: 0.0957

RRIRSRPPRLPRPRPRPMTWPRP
shrunken log2 fold change: -0.0238

RRIRYRPPRLPRPRPRPFWSPRP
shrunken log2 fold change: -0.363

RRIRPRPPRLPRPRPRPENEPRP
shrunken log2 fold change: 0.0949

RRIRKRPPRLPRPRPRPAEKPRP
shrunken log2 fold change: 0.477

RRIRDRPPRLPRPRPRPTMQPRP
shrunken log2 fold change: 0.625

RRIRNRPPRLPRPRPRPRSHPRP
shrunken log2 fold change: -0.127

RRIRIRPPRLPRPRPRPNWWPRP
shrunken log2 fold change: 0.159

RRIRIRPPRLPRPRPRPLPMPRP
shrunken log2 fold change: -0.204

RRIRFRPPRLPRPRPRPIRGPRP
shrunken log2 fold change: -0.0057

RRIRARPPRLPRPRPRPKWSPRP
shrunken log2 fold change: 0.354

RRIRMRPPRLPRPRPRPVHMPRP
shrunken log2 fold change: -0.318

RRIRRRPPRLPRPRPRPQFAPRP
shrunken log2 fold change: 0.0495

RRIRKRPPRLPRPRPRPVVPPRP
shrunken log2 fold change: -0.093

RRIRHRPPRLPRPRPRPWVDPRP
shrunken log2 fold change: 0.0471

RRIRLRPPRLPRPRPRPDYNPRP
shrunken log2 fold change: -0.657

RRIRNRPPRLPRPRPRPPTKPRP
shrunken log2 fold change: 0.46

RRIRSRPPRLPRPRPRPIVQPRP
shrunken log2 fold change: 0.144

RRIRWRPPRLPRPRPRPNCLPRP
shrunken log2 fold change: 0.257

RRIRCRPPRLPRPRPRPKSNPRP
shrunken log2 fold change: -0.274

RRIRARPPRLPRPRPRPIEWPRP
shrunken log2 fold change: 0.638

RRIRSRPPRLPRPRPRPGANPRP
shrunken log2 fold change: 0.0967

RRIRTRPPRLPRPRPRPTNNPRP
shrunken log2 fold change: -0.618

RRIRCRPPRLPRPRPRPEECPRP
shrunken log2 fold change: -0.0128

RRIRFRPPRLPRPRPRPTKMPRP
shrunken log2 fold change: 0.0196

RRIRQRPPRLPRPRPRPPLNPRP
shrunken log2 fold change: 0.633

RRIRIRPPRLPRPRPRPSPKPRP
shrunken log2 fold change: -0.178

RRIRQRPPRLPRPRPRPHIAPRP
shrunken log2 fold change: -0.142

RRIRTRPPRLPRPRPRPWAYPRP
shrunken log2 fold change: 0.013

RRIRVRPPRLPRPRPRPPERPRP
shrunken log2 fold change: 0.257

RRIRFRPPRLPRPRPRPSVNPRP
shrunken log2 fold change: -0.388

RRIRCRPPRLPRPRPRPPNDPRP
shrunken log2 fold change: 0.383

RRIRKRPPRLPRPRPRPHIHPRP
shrunken log2 fold change: -0.239

RRIRRRPPRLPRPRPRPGTNPRP
shrunken log2 fold change: 0.0926

RRIRLRPPRLPRPRPRPKQCPRP
shrunken log2 fold change: -0.0836

RRIRGRPPRLPRPRPRPSGIPRP
shrunken log2 fold change: 0.0684

RRIRARPPRLPRPRPRPENWPRP
shrunken log2 fold change: 0.569

RRIRWRPPRLPRPRPRPKPPPRP
shrunken log2 fold change: 0.821

RRIRWRPPRLPRPRPRPILGPRP
shrunken log2 fold change: -0.0119

RRIRGRPPRLPRPRPRPAVYPRP
shrunken log2 fold change: 0.742

RRIRTRPPRLPRPRPRPFPHPRP
shrunken log2 fold change: -0.247

RRIRHRPPRLPRPRPRPHREPRP
shrunken log2 fold change: 0.00911

RRIRIRPPRLPRPRPRPGGQPRP
shrunken log2 fold change: 0.112

RRIRCRPPRLPRPRPRPRERPRP
shrunken log2 fold change: 0.875

RRIRVRPPRLPRPRPRPYYKPRP
shrunken log2 fold change: -0.67

RRIRQRPPRLPRPRPRPRNMPRP
shrunken log2 fold change: -0.211

RRIRRRPPRLPRPRPRPVCDPRP
shrunken log2 fold change: 0.621

RRIRSRPPRLPRPRPRPYIYPRP
shrunken log2 fold change: -0.778

RRIRPRPPRLPRPRPRPRYSPRP
shrunken log2 fold change: -0.354

RRIRMRPPRLPRPRPRPFWYPRP
shrunken log2 fold change: -0.0609

RRIRDRPPRLPRPRPRPICYPRP
shrunken log2 fold change: 0.204

RRIRYRPPRLPRPRPRPHGAPRP
shrunken log2 fold change: -0.0794

RRIRSRPPRLPRPRPRPHAHPRP
shrunken log2 fold change: -0.32

RRIRRRPPRLPRPRPRPEVTPRP
shrunken log2 fold change: 0.0976

RRIRMRPPRLPRPRPRPEEWPRP
shrunken log2 fold change: 0.00599

RRIRIRPPRLPRPRPRPGYNPRP
shrunken log2 fold change: -1.28

RRIRCRPPRLPRPRPRPDWPPRP
shrunken log2 fold change: 0.187

RRIRCRPPRLPRPRPRPDEYPRP
shrunken log2 fold change: -0.231

RRIRFRPPRLPRPRPRPGTDPRP
shrunken log2 fold change: -0.11

RRIRSRPPRLPRPRPRPFNTPRP
shrunken log2 fold change: -0.257

RRIRVRPPRLPRPRPRPSYPPRP
shrunken log2 fold change: -0.392

RRIRRRPPRLPRPRPRPEYIPRP
shrunken log2 fold change: -0.199

RRIRKRPPRLPRPRPRPMVWPRP
shrunken log2 fold change: 0.722

RRIRDRPPRLPRPRPRPGTHPRP
shrunken log2 fold change: 0.129

RRIRKRPPRLPRPRPRPPAQPRP
shrunken log2 fold change: 0.698

RRIRWRPPRLPRPRPRPGTMPRP
shrunken log2 fold change: -0.153

RRIRCRPPRLPRPRPRPMVTPRP
shrunken log2 fold change: -0.071

RRIRPRPPRLPRPRPRPNAAPRP
shrunken log2 fold change: 0.237

RRIRVRPPRLPRPRPRPIFLPRP
shrunken log2 fold change: -0.157

RRIRERPPRLPRPRPRPFVRPRP
shrunken log2 fold change: -0.146

RRIRFRPPRLPRPRPRPTAWPRP
shrunken log2 fold change: 0.618

RRIRVRPPRLPRPRPRPSFQPRP
shrunken log2 fold change: -0.22

RRIRCRPPRLPRPRPRPQLRPRP
shrunken log2 fold change: -0.127

RRIRGRPPRLPRPRPRPQEDPRP
shrunken log2 fold change: 0.291

RRIRFRPPRLPRPRPRPGQQPRP
shrunken log2 fold change: -0.0159

RRIRHRPPRLPRPRPRPEKFPRP
shrunken log2 fold change: -0.0202

RRIRSRPPRLPRPRPRPGAHPRP
shrunken log2 fold change: 0.0286

RRIRSRPPRLPRPRPRPRKHPRP
shrunken log2 fold change: 0.0783

RRIRCRPPRLPRPRPRPFVTPRP
shrunken log2 fold change: 0.663

RRIRSRPPRLPRPRPRPRYMPRP
shrunken log2 fold change: -0.664

RRIRRRPPRLPRPRPRPFVSPRP
shrunken log2 fold change: -0.0868

RRIRGRPPRLPRPRPRPEAVPRP
shrunken log2 fold change: 2.27

RRIRERPPRLPRPRPRPCINPRP
shrunken log2 fold change: -0.0818

RRIRSRPPRLPRPRPRPCCKPRP
shrunken log2 fold change: 0.0569

RRIRARPPRLPRPRPRPGYLPRP
shrunken log2 fold change: 0.0801

RRIRLRPPRLPRPRPRPIIVPRP
shrunken log2 fold change: -0.0625
